# Experimental data as given in the supplement of paper PMC9170038.
# Test system: K4 kissing-loop RNA reporter
# Assay: apparent KD of K4 kissing-loop reporter; higher = weaker reporter binding
# Details: Eterna round: R107
# Method: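 RNA-MaP round R107: designed RNA switches with theophylline, tryptophan, arginine or FMN aptamers are transcribed on-chip within common flanks. They are titrated with a labelled K4 kissing-loop RNA reporter in RNA-MaP buffer (100 mM Tris pH 7.5, 80 mM KCl, 4 mM MgCl2), without ligand or with the indicated ligand. Median apparent KD per design.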
# [1] = input ligand: theophylline 20 uM
# [2] = input ligand: tryptophan 2.4 mM
# 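Note: bound reporter read as fluorescence of individual clusters on recovered sequencing chips by microscopy, with normalized cluster intensities fitted with a binding model.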
Sequence,apparent KD of K4 kissing-loop reporter (input ligand: FMN 200 uM) [µM],apparent KD of K4 kissing-loop reporter (input ligand: arginine 13.2 mM) [µM],apparent KD of K4 kissing-loop reporter (input ligand: none) [µM],apparent KD of K4 kissing-loop reporter [1] [µM],apparent KD of K4 kissing-loop reporter [2] [µM]
CGGAGUGAUGUUCCGUUAAUUAAUUAUUUACGAGGACCGGUACGGCCGCCACUCGAUUUUGCUUUUAUUUAAUGUUUGGAAAUUU [JR_SSTryptoA_Sub006],0.135,0.143,0.142,0.146,0.101
AGAGUCAGACAAAAGUCUGGCUCAGCCGAAGGAGCGUCCGUAAGGACAGGUAGGUCGCGGCUAUUUGAGUGAUGUUUGGGUUCCU [KL-SSArg-A20],0.281,0.144,0.231,0.233,0.212
GCCGUACGCAUGGAUACCAGCUAGACCGAGUGAUGUUCAGGUCUGAAUGCCGGUAAUAAGAGCCCUUGGCAGCCAUGCGUACGGC,0.361,0.262,0.358,0.335,0.307
GGAGGAGAAUAUGAUACCAGCAGAGAGAGAGAGGAAGUAUAGUGAUGUUAUAUGUGAGAAUGCCCUUGGCAGCAUAACAUGAAGG [whbob_SS_Theo_B_sa90],0.288,0.193,0.211,0.454,0.159
GGACUACUAUGUCCCAUACAAACAAGAGAUACCAGCCAUCAUAGAGGCCCUUGGCAGCUCAUAUAAUCCAGUGAUGUUGGAUUUC [Beveus],0.15,0.193,0.163,0.136,0.132
GCUAGGCAUGCAGGAUAUCGCCGAGUGAUGUUCGGUAGGCCGCUUUCUUUCUUUCUUUGCGGCCAGCGAGAAGGGCAUGCCUAGC,0.139,0.112,0.108,0.068,0.118
AAGUGUGUGGCGGCCGCCACUAGAAUCCAGUGAUGUUGGAGUUAUCAUGUAAAUGAUAAUCAACAUAGGACCGGGCCAUAUAGAA [Same State - Tryptophan B (Freestyle 8)],0.63,0.377,0.701,0.441,0.349
CGCAGUGAUGUUGCGAGUAGCUACAGGGAAGGAGCGCUUUAGUAAGCAGGUAGGUCGCCCACGCAGUGAUGUUGCGUCAUAGGGU [Exclusion Arginine A GF 19],0.118,0.106,0.108,0.109,0.0884
ACACAGAGUUGCCGAGUGAUGUUCGGCUUACGAGGACCGGUACGGCCGCCACUCGUUACUCUGUGUUUUGGACACCAAGGCGUAG [Edvemaquan],0.565,0.492,0.675,0.497,0.169
ACUAUGGAGUGAUGUUCCCGCGUCAUUGAUACCAGAAUGUAUACCUUCCCUUGGCAGCAAUUCAUCGCACGUAUACUUAUACAAG [theeternabot_sameState_KL_Theo_A_31],0.585,0.541,0.665,0.841,0.541
UUUUAAAUGUCUGAUACCAGAGAAAAUAUAUGUAGUGAUGUUAUAUACAAAUUAAAUAAGCUCCCUUGGCAGCAGUAUUAAUUUU [AstrosExc-TheB#10],0.628,0.694,0.758,0.761,0.518
GACUGGAGUGAUGUUCCAUUAACGAUCCUACGAGGACCGGUACGGCCGCCACUCGAAAUGCAGUGAUGUUGCAGCCAGCCGUACU [Exclusion Trptophan A GF 8],0.157,0.18,0.162,0.192,0.142
UAACUGCAGUGAUGUUGCAGAUGUCCUGACUAGGAUAUCAGGAAACUGAGAAGGAGUGCCUUCUAAACAUCACAGAAGGUGGACA [KL-SSFMN-A28],0.36,0.44,0.415,0.286,0.458
AAUAUAGUGAUGUUAUAUAAGAAGGAGUUACGAGGACCGGUACGGCCGCCACUCGAAACGAGUGAGGGCCCGGGAGAUUGGGCCC [SSTryptA.G],0.339,0.275,0.32,0.436,0.262
AAACCAAUCAGAGGAUAUUCUUUAUUCGACAUAAAUUUCUAUAAAUUGCAGUGAUGUUGCAAUAUAGGAGAAGGCUGAUUGACAA [Exclusion FMN B Gf 12],0.239,0.199,0.204,0.229,0.223
UGCGCUAUGUCCUAAAAUGUCCUCCGGGAUACCAGAGUCUUUUUAUUCCCUUGGCAGCUUGAGUGAUGUUUGAUGCCGUUCUUGU [nnbvmullin],0.708,0.294,0.551,0.355,0.415
UAAUUUAUGUCUUUAAUUUUAUAAUCAGAUACCAGUGAUUUAUGACACCCUUGGCAGCUGUAUUGAGUGAUGUUCUUAUACUUAA [JR_Nu_ExcTheophyA_Sub022],0.14,0.167,0.175,0.236,0.0993
ACCUACGAUCACAAUAGUGAUUGUAGGAACUAGGAUAUGCUGAAAAGCAGAAGGAGUGAUGUUCCGUCAUGAAUAACAUGACAAA [FmnAX 5 #OpenEnded #K4Late #CoaxialStacking],0.251,0.525,0.495,0.594,0.336
CAUGGAGUGAUGCUCCAUGAUCGGGCUUGGCAGGAUAUGGGAUUUUCCAGAAGGGUCGAUCCCAGCGAGUGAUGUUCGCUGGUCU [Exclusion FMN A GF 26],0.106,0.121,0.126,0.151,0.116
CGAUGGAUGGCAGGAUAUAGACAUUGAGUGAUGUUCGAUGAUUAUCCAUAUUCCCGUCACCUAAGACUAGAAGGGCCAUCCAUCG,0.554,0.167,0.205,0.191,0.198
CCUGCCAGCACGGCCGCCACUUCUAUUGUAUCUAUUUUUGUAAUCCUUUAGGAGUGAUGUUUUUAAAGGACCGGGUGAUGGCUGA [theeternabot_exclusion_KL_Trp_B_14],0.446,0.248,0.398,0.356,0.41
GGUGUUGUUUGUGCUGUUUUCUUCGUUUCUCGAGGACCGGUACGGCCGCCACUCGAGUGAUGUUUGGGUAGCGAUCUUUGUUAGU [Bdazzled - #4- Exc. Tryptophan A],0.43,0.256,0.345,0.339,0.385

Sequence,apparent KD of K4 kissing-loop reporter (input ligand: FMN 200 uM) [µM],apparent KD of K4 kissing-loop reporter (input ligand: arginine 13.2 mM) [µM],apparent KD of K4 kissing-loop reporter (input ligand: none) [µM],apparent KD of K4 kissing-loop reporter [1] [µM],apparent KD of K4 kissing-loop reporter [2] [µM]
CGCGACGUGGUCACGCCAGUCUCGUUAACCAAGGAUAUUGAGAAGACAAGAAGGUGGAUGUACCAUAGUGAUGUUGUGGUCAGUA [theeternabot_sameState_KL_FMN_A_17],0.416,0.356,0.465,0.448,0.388
AGUGUGCAAAAGCACACUCAGUACAAGGACAAGGAUAUCUACUAAUAGAGAAGGUGUCCUUUCCUUAGUGAUGUUAAGGAACUGA [Omei KL FMN A SS D v3],0.205,0.5,0.617,0.657,0.595
GGCACGUUCCCUUGAUCAGUGAUGUUGUUUCGAGGACCGGUACGGCCGCCACUCGCUCGGCGUUCGCCCAGGCCCGGAAAACUGC [theeternabot_exclusion_KL_Trp_A_13],0.241,0.207,0.224,0.217,0.225
AGAAGAGUGAUGUUCUUCUAUAUCUCAGAAGGAGCGACAUUAAUGUCAGGUAGGUCGCUGAGAUGAAAUCUCACACAGAUCUUGG [Arg A SS t8a],0.145,0.154,0.149,0.178,0.125
CCGUGGCCGACGGCCGCCACUCUUACCAUCCAGCGGAGUGAUGUUCCGCCCGAGUGAUGUUCGGAGAGGACCGGGUCUGUUGUAA [Exclusion Tryptophan B GF30],0.117,0.103,0.108,0.0891,0.0989
GGGAGGAGUGGUGUUGAUUAGGGAGCGGAAGGAGCGCCGAAGAAGGCAGGUAGGUCGCCGGAAUAUAGUGAUGUUAUAUAGAGGG [ExArg.G],0.304,0.211,0.27,0.168,0.201
CCAUUCAGUUACGAUACCAGUCUAAUAUAUUUGAUCAAAACCCUCGCCGAGUGAUGUUCGGACCCUUGGCAGCGUCUGGGACAGG [xxcetmullin],0.481,0.399,0.421,0.379,0.344
UGAUUGGCGAAAGUAGUGAUGUUACGAAUAUAGGAUAUUAGAGGAAUAAGAAGGAUAAAUGAGAAAUAGGUAAAUUGUUGGUUGG [FMN same state],0.101,0.0515,0.0955,0.116,0.0945
UGUCAUUGGUCGGCCGCCACUCCAUAACGAGUGAUGUUCUAAAAGACGGAUCGAAAGAUCUGUCGGAGGACCGGGACCGAUGACU [FiskerMod 6 - Jieux - Same State - Tryptophan B],0.558,0.308,0.622,0.274,1.14
GAUUUAGAGGCGGCCGCCACUAGUGAUGUUAGUGAUGUUUGAUAGGGAAUAUAUCUGCGAGUAGAUAGGACCGGGCCAGAUGGAG [eccvbmullin],0.192,0.128,0.15,0.168,0.151
UUAUAACCCAGUGAUGUUGGGUAGCGGCCACGAGGACCGGUACGGCCGCCACUCGAGGUUUGACCAGUGAUGUUGGACUAUUUGG [Same state Tryptophan A GF 5],0.163,0.134,0.156,0.147,0.0471
GUGGUACAGGCGGCCGCCACUAGUGAUGUUAGUGUUAGAAGAUAUAGUAUAUAUCGGCAUUUGUUUAGGACCGGGCCUGGUGGAG [aqzacmullin],0.209,0.166,0.184,0.189,0.182
GGAUAGGAUAGAGGAUAUGGAAAACACAGAAAUGACUUGUUGUGUUUAUCCAUAGGGAGUGAUGUUCCAGAAGGCUGUCCUAUCG [MatMod 21 - Jieux - Exclusion - FMN B],0.289,0.184,0.194,0.198,0.158
UAACUGCAGUGAUGUUGCAGAUGUCCUGACUAGGAUAUCAGGAAACUGAGAAGGAGUCCCUUCUAAACAUCACAGAAGGAGGACA [[K1]-[K2]-[F1]'-[F1]-[F2]-[F2]'-[K]'-[F]''_Design2],0.491,0.415,0.434,0.508,0.442
AGGAUCCACCAGUGAUGUUGGAAAUACUCCAAGGAUAUGACGAAAGUCAGAAGGUGGUAGACUGGACAAAGUCCAGUCGGAUCCA [FmnA 28 #SwitchBubble #K4Early],0.534,0.247,0.602,0.486,0.346
GGCCGCAAGGCGAGCGCUCCCACUCCGGAAGGAGCGCCCGCAAGGGCAGGUAGGUCGCCGGAGUGAUGUUCCGGUGGAGGGCUCG [#2 Exclusion - Arginine A Attempt #16 (Inspired by Omei)],0.398,0.271,0.369,0.127,0.338
UGGAGUUGACGAAAAGUCAACUCCUGGGAAGGAGCGGACGAAAGUCCAGGUAGGUCGCCCACUACCAGUGAUGUUGGUACUUCAA,0.241,0.274,0.271,0.254,0.209
AAGGGCGGGACUUCCUCGCCGGAUAGAGAUACCAGCCCUGCAAAGGGCCCUUGGCAGCUCACUGACCUCAGUGAUGUUGAGGUUC [Maanveri],0.252,0.21,0.234,0.209,0.223
UGGGUUGGAAGUGAUGUUUCUCUAAGUGAUACCAGACAAAAGAAAGUCCCUUGGCAGCACAAUGAUGCCAAGGAAACGGCAUGAU [#16 K4 Theophylline A Same State],0.229,0.244,0.26,0.25,0.195
GAAUUGACGAGUGAUGUUCGUCCACAAUACCGAGGACCGGUACGGCCGCCACUCGAGCAAUGUGAAUAGGGUCGCGUUUUGCAGU,0.294,0.266,0.295,0.352,0.187
GCCUAGCAGGGAAGGAGCGCCAGGAGAAGAAAUGGAGAGAGUUGAGUGAUGUUCAAAUGGUGGCAGGUAGGUCGCCCUGCUAGGC [KL-SSArg B12],0.388,0.298,0.583,0.761,0.274
